One may read the Kd as the free concentration of one partner at which half of the binding sites on the other are occupied at equilibrium, for simple one-to-one binding. One may read the koff as the first-order rate constant of dissociation. One may read the kon as a measure of how fast the partners come together. The term EC50 denotes the midpoint of the concentration-response curve. For orientation: IC50 means the concentration that gives 50% inhibition.

Experimental findings from patent US20240343803A1 (SHANDONG SIMCERE BIOPHARMACEUTICAL, published 2024) are described below.

Changes are numbered by the printed parent chain.

T1: Fusion protein of extracellular domain of human TIGIT and His-tag (human TIGIT ECD-his) (human)
T1 chain: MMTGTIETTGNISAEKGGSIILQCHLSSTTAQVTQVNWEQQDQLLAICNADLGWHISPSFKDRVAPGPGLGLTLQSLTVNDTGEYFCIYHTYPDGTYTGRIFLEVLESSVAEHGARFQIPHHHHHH

T2: Fusion protein of extracellular domain of human TIGIT and mouse IgG2a Fc fragment (human TIGIT ECD-mFc) (human)
T2 construct: The entry includes the signal peptide (limits not recoverable) and the mouse IgG2a Fc
T2 chain: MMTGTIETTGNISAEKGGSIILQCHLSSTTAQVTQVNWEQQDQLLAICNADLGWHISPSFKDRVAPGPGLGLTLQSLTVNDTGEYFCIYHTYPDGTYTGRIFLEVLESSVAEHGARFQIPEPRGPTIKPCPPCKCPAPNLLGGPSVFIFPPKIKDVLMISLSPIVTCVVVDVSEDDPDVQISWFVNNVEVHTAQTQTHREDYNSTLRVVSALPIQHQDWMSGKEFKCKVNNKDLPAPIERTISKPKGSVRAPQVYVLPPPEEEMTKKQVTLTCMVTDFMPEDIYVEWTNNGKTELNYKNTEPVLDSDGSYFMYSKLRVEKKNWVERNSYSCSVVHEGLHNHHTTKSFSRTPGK

T3: Full-length human TIGIT on CHO-K1 cells (CHO-K1 human TIGIT) (human, UniProt Q495A1 22-244)
T3 construct: NCBI XP_024309156.1; the entry includes the signal peptide (limits not recoverable); The strain (high, medium, low) is named under assay; also called high expression strain 1D2; medium expression strain 2D10
T3 sequence: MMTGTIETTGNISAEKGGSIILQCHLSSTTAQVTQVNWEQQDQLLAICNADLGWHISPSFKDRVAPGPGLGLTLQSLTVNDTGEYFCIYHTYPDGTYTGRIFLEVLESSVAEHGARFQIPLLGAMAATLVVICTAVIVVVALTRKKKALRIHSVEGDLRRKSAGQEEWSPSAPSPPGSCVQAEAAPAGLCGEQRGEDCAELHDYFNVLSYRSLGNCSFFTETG

T4: human PVRIG-mFc protein (Acro, PVG-H5253) (human, UniProt Q6DKI7 41-171, limits assumed)
T4 construct: bought reagent; also called PVRIG-ECD-mFc
T4 sequence (looked up): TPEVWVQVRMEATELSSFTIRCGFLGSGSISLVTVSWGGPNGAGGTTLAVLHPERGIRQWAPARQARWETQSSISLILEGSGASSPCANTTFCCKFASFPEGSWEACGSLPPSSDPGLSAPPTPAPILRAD

T5: human PVRIG-his (AcroBiosystems, Cat NO. PVG-H52H4) (human, UniProt Q6DKI7 41-171, limits assumed)
T5 construct: treated as the same protein; also called human PVRIG-His protein; Human PVRIG-His, Acro C227P1-9ARF1-T4
T5 sequence (looked up): T4 sequence (looked up)

B1: TIGIT-006-H3L1 (antibody, V domains shown)
VH: EVQLQESGPGLVKPSETLSLTCAVSGYSMTSDYWNWIRQPPGKKLEWIGYISYSGRTYYNPSLKSRVTISRDTSKNQFSLKLSSVTAADTAVYYCARGDYSNYGGAMYDWGQGTTVTVSS
VL: DIVMTQTPLSLSVTPGQPASISCRASQGVSTTIAWYLQKPGQSPQLLIYSASYRYTGVPDRFSGSGSGTDFTLKISRVEAEDVGVYYCQQYYSSPFTFGGGTKVEIK
notes: Humanized anti-TIGIT antibody
B2: TIGIT-006-H2L2 (antibody, V domains shown)
VH: B1 VH with K44G
VL: B1 VL with L37Q, Q45K
notes: Humanized anti-TIGIT antibody
B3: TIGIT-006-H4L2 (antibody, V domains shown)
VH: B1 VH with I48M, V67I
VL: B1 VL with L37Q, Q45K
notes: Humanized anti-TIGIT antibody
B4: TIGIT-006-H4L1 (antibody, V domains shown)
VH: B1 VH with I48M, V67I
VL: B1 VL
notes: Humanized anti-TIGIT antibody
B5: PVRIG-A104 (VHH)
VHH: EVQVVESGGGLVQAGGSLRLSCAASGRTRSMYVMGWFRQAPGKEREFVGRIKWSGDTTYTSYADFVKGRFTLYGNQARNTVYLQMNSLKPEDTAVYYCYRRSWTNTKLYWGKGIQVTVSS
notes: tested as VHH-hinge-CH2-CH3 (human IgG1-Fc); not shown: human IgG1 hinge-CH2-CH3
B6: PVRIG-A43 (VHH)
VHH: QVQLVESGGGLVQSGGSLRLSCAASGRTRSMYVMGWFRQAPGKEREFVGRIKWSGDTTYTSYADFVKGRFTLYGNQARNTVYLQMNSLKVEDTAVYYCAGRVVPLPSRQRDRYDYWGQGTQVTVSS
notes: as for B5

For one assay, the target named is T1, Fusion protein of extracellular domain …. Nature of the assay: BIAcore. A general note: In SPR one partner is held on a chip, and binding of the other changes the refractive index at the surface.
With B1, binding was put at a Kd of 0.705 nM, the koff was determined as 0.000241 s⁻¹ and the kon came out at 342000 M⁻¹ s⁻¹.

Consider B2, for which the affinity, expressed as Kd, was 0.893 nM; the dissociation rate constant (koff) was 0.000324 s⁻¹; the kon stood at 363000 M⁻¹ s⁻¹.

Turning to B3, the Kd was found to be 0.658 nM, the koff came to 0.000221 s⁻¹ and the kon turned out to be 337000 M⁻¹ s⁻¹.

For B4, the equilibrium dissociation constant (Kd) turned out to be 0.657 nM, the koff amounted to 0.000258 s⁻¹ and the kon is 393000 M⁻¹ s⁻¹.

The next assay deals with T2, Fusion protein of extracellular domain …. Briefly: ELISA, human TIGIT ECD-mFc. The method, then:
(§1) After discarding the coating solution, the plate was added with 5% skim milk powder (Sangon Biotech, CAT #A600669-0250)-PBS, 250 μL/well, and incubated at 37° C. for 2-4 hours. […] The enzyme-labeled plate was then washed with 0.05% Tween 20-PBS for 3 times on the Microplate Washer, added with tested antibodies diluted to 13 nM with 1% BSA (diluted by 3-fold serial dilution for 12 concentration points), 50 μL/well, and incubated at 37° C. for 1.5-2 hours. The plate was washed with 0.05% Tween 20-PBS for 3 times on the Microplate Washer, then added with HRP enzyme-labeled antibodies (Merck, CAT #AP113P) diluted with 1% BSA (Sangon Biotech, CAT #A500023-0100)-PBS at a dilution ratio of 1:5000, 50 μL/well, and incubated at 37° C. for 1 hour. After washing 3 times with 0.05% Tween 20-PBS on the Microplate Washer, the plate was added with TMB chromogenic solution (KPL, CAT #52-00-03), 50 μL/well, and incubated at room temperature for 7-10 minutes. 1M HCL, 50 μL/well, was then added into the plate to terminate the reaction, and the OD450 nm was read by a microplate reader (Biotek, Powerwave HT). […] (b) The binding activity of anti-TIGIT chimeric antibodies to CHO-K1 human TIGIT (cells with high, medium and low expression levels) and CHO-KI cynomolgus monkey TIGIT detected by FACS.
(§2) The affinity of the above humanized antibodies with human TIGIT ECD-His is detected by BIAcore, and with reference to the methods of Example 4 (a), (b), and (d), the binding activity of the above humanized antibodies to human TIGIT ECD-mFc, CHO-K1 human TIGIT, CHO-K1 cynomolgus monkey TIGIT and cynomolgus monkey TIGIT ECD-mFc, and the effect of the humanized antibodies blocking the binding between human TIGIT ECD-mFc and CHO-K1 CD155 are detected, the results are shown in Table 18.
A general note: In an ELISA, binding on a coated surface is turned into a signal by an enzyme label.
Turning to B1, a half-maximal effect (EC50) was put at 0.0096 nM.

The molecule B2 showed an EC50 of 0.0117 nM.

Turning to B3, the midpoint of the response, the EC50, lay at 0.0113 nM.

For the molecule B4, a half-maximal response (EC50) required 0.0086 nM.

The target in a further assay is T1, Fusion protein of extracellular domain …. Briefly: BIAcore; KD ratio to TIGIT-CHI-006.
Turning to B1, the “Fold change vs chimeric antibodies (KD)” value was 9.11 fold.

B2: the “Fold change vs chimeric antibodies (KD)” value turned out to be 11.5 fold.

B3: the “Fold change vs chimeric antibodies (KD)” value came out at 8.5 fold.

Regarding B4, the “Fold change vs chimeric antibodies (KD)” value came to 8.49 fold.

The target in a further assay is T6, Fusion protein of extracellular domain of cynomolgus monkey TIGIT and mouse IgG2a Fc fragment (cynomolgus … (cynomolgus monkey)).
T6 construct: The entry includes the signal peptide (limits not recoverable) and the mouse IgG2a Fc
T6 sequence (chain, as listed by the source limits assumed): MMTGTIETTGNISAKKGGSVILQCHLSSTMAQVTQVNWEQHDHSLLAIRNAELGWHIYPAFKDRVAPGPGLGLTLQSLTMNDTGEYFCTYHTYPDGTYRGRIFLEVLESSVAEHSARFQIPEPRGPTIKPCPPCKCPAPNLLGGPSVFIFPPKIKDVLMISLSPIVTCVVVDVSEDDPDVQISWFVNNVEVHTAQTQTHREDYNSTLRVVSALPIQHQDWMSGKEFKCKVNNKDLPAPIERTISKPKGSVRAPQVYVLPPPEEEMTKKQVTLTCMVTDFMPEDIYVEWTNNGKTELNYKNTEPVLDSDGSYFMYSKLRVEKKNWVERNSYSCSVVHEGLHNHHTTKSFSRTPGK
Nature of the assay: ELISA, cynomolgus monkey TIGIT ECD-mFc. The method, then: as §1, §2
On to B1, for which the EC50 amounted to 2.81 nM.

In the case of B2, the midpoint of the response, the EC50, lay at 3.38 nM.

Molecule B3 showed an EC50 of 0.997 nM.

Regarding B4, the half-maximal effective concentration (EC50) stood at 1.53 nM.

Another assay deals with T7, Fusion protein of extracellular domain of human TIGIT and human IgG1 Fc fragment (human TIGIT ECD-hFc) (human).
T7 construct: The entry includes the signal peptide (limits not recoverable) and the human IgG1 Fc
T7 sequence (chain, as listed by the source limits assumed): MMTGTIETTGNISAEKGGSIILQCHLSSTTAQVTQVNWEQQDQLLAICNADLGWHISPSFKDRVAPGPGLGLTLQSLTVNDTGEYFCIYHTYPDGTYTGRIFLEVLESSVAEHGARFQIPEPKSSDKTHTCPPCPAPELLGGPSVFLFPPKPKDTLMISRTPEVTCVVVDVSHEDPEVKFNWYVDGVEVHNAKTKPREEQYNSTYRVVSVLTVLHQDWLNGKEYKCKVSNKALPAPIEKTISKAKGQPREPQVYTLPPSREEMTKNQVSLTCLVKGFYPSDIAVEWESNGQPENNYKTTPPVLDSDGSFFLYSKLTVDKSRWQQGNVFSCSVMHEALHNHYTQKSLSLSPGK
Nature of the assay: blocking of TIGIT ECD-hFc binding to CHO-K1 CD155 cells. In a few lines: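 Cell-based ELISA on CHO-K1 CD155 cells, cultured overnight, fixed and blocked with 5% skim milk-PBS. Antibodies were premixed for 0.5 h with human TIGIT ECD-hFc (working concentration 30 ng/mL), then added and held at 37° C for 1.5-2 h. Bound TIGIT was detected with HRP secondary antibody (1:5000, 37° C, 1 h) and TMB, read as OD450 nm. IC50 came from the inhibition curves.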
Molecule B1 returned an IC50 of 0.637 nM.

Molecule B2 displayed an IC50 of 0.904 nM.

Molecule B3 came in with an IC50 of 0.671 nM.

Turning to B4, the IC50 came to 0.704 nM.

Another assay addresses T3, Full-length human TIGIT on CHO-K1 cells …. Nature of the assay: cell binding, CHO-K1 human TIGIT high expression strain. The procedure:
The collected cells were washed once with PBS (Hyclone, CAT #SH30256), resuspended to 2×10⁵/50 μL with 1% BSA-PBS. The antibodies were diluted to 80 nM with 1% BSA-PBS (diluted by 3-fold serial dilution for 12 concentration points). The 50 μL cells were then mixed with 50 μL diluted antibodies, and then incubated at 4° C. for 60 minutes. […] After washing twice with PBS, the cell samples were resuspended with 1% BSA-PBS, 100 μL/well and then analyzed by flow cytometry (BD, Canto II). […] [0298] (c) The effect of anti-TIGIT chimeric antibodies blocking the interaction between Bio-CD155-His and CHO-K1 human TIGIT high expression cell strains detected by FACS
as §2
B1 came in with an EC50 of 0.0468 nM.

B2 yielded a 50% effective concentration (EC50) of 0.0444 nM.

B3 had an EC50 of 0.0251 nM.

The molecule B4 returned a concentration for a half-maximal effect (EC50) of 0.0349 nM.

In another assay the target is T4, human PVRIG-mFc protein (Acro, …). Nature of the assay: competition FACS; blocked: human PVRIG-mFc binding to CHO-K1-CD112 cells. The procedure:
After incubation, the cells were added with staining buffer (2% FBS+PBS) to stop staining, centrifuged at 350×g to remove the supernatant, washed twice and resuspended with staining buffer to a density of 1×10⁶ cells/mL. The cells were plated into a 96-well plate (50 μL of cell suspension per well) for further use. A working solution of human PVRIG-mFc protein (Acro, PVG-H5253) prepared with staining buffer, 1 μg/mL (four-fold concentration), was added into a 96-well plate (50 μL PVRIG-mFc working solution per well). […] The diluted antibodies were added to the well containing 50 μL of PVRIG-mFc. The plate was placed on a microplate shaker at 400 rpm for 1 minute to fully mix the antibodies and PVRIG-mFc proteins, and then incubated at 4° C. for 30 minutes. After the incubation, the cell suspension prepared above (100 μL) was added into the wells, gently mixed with the pipette tip and incubated at 4° C. for 30 minutes. After the incubation, the cells were washed twice with staining buffer (200 μL per well) and centrifuged at 350×g for 5 minutes to discard the supernatant. The PE goat anti-mouse IgG Fc antibody (Biolegend, 405337) was diluted 250 times with staining buffer, added into the washed wells (100 μL per well), mixed well, and stained at 4° C. for 30 minutes. After staining, the cells were washed twice with staining buffer, finally resuspended with 200 μL staining buffer and analyzed by flow cytometry (BD, Canto II). The weaker the fluorescence signal, the stronger the ability of the antibodies blocks the binding of CHO-K1 human CD112 cells to the PVRIG-mFc protein. An antibody binding curve was drawn with concentration of antibodies as the abscissa and the corresponding Mean Fluorescence Intensity (MFI) as the ordinate. The IC50 value of the antibodies and the AUC value of the binding curve were calculated by using a Four Parameter Logistic Fit (GraphPadPrism9). The smaller the IC50 value and AUC value, the stronger the ability of the antibodies competes with CHO-K1-CD112 cells to bind to human PVRIG-mFc protein.
B5: the “IC50 (read off the curve)” value is roughly 1 nM.

Regarding B6, the “IC50 (read off the curve)” value was roughly 1 nM.

A further assay concerns the target T5, human PVRIG-his (AcroBiosystems, Cat …). Briefly: competition ELISA on coated human PVRIG-his; blocked ligand human PVRL2-mFc. The method, then:
The ELISA plate was pre-coated with 100 μL/well of 0.5 μg/mL human PVRIG-his protein (AcroBiosystems, Cat NO. PVG-H52H4). The tested anti-PVRIG antibodies were diluted from the highest concentration of 16 nM (two-fold concentration). The diluted antibodies were mixed with 18 ng/ml human PVRL2-mFc (AcroBiosystems, Cat NO. CD2-H5257) in equal volume, added into the plate (100 μL/well), and incubated with shaking at room temperature for 2.0 hours. […] A HRP substrate, TMB (Thermo, Cat NO. 34029) was added into wells after washing the plate again for color development. After adding a termination solution to terminate the reaction, the absorbance value was read by a microplate reader (MD i3×). An inhibiting curve was drawn with concentration of antibodies as the abscissa and the corresponding OD value as the ordinate. The IC50 value was calculated by using a Four Parameter Logistic Fit (GraphPadPrism9). The smaller the IC50 value, the stronger the ability of the antibodies inhibits the binding between PVRIG and PVRL2. The positive and negative controls are the same as in Example 8.
Consider B5, for which the “IC50 (read off the curve)” value was roughly 1 nM.

Take B6: the “IC50 (read off the curve)” value is roughly 1 nM.
